Values of other authors, collected in publication doi:10.1101/2023.08.17.553741.

Molecular target: SARS-CoV-2 spike protein (target of cited Kd) (SARS-CoV-2) (UniProt P0DTC2)
Details: 3' thiol C3, […] (temperature not stated), PBS 1X

Question: For “TTCCGGTTAATTTATGCTCTACCCGTCCACCTACCGGAATTTTTTTTTTTTTTTTTTTTACGGGTTTGGCGTCGGGCCTGGCGGGGGGATAGTGCGGT [dimeric aptamer (S1-20T-S2-thiolC3)]”, which Kd is on record?
Answer: 0.17 nM
